Drawing on a protein production outcome set (Wang et al. 2014), this text covers protein production for 20 sequences.

The series in a line: label from the status in PepcDB records.
As to “MSVTTTETTGTAPALPRKTLGLAMIGLAVMMTLLHYAGLLPAWLHRLPEAIIPPFATWLDAIFNFVKDDLGLLALTRLLTDGLEVVLDATANLLFGKRRWPNIGPIPWSAIAAMTAVVGYYLGGWRMALLAGGTFVWTAMIGQWDIAMQTMSVLVVAAPLAFAIGLVLGISAWKSPSFDAVLRPVLAVLQTLPFFTYLLPAVIFFKVGPTAGAVATTVYAIPPMILMTTLGLQKVSPEVVEAGKMSGCTRWQMLRHVYIPAARTEILVGVNQVIMLCLAMVVLTAFIGMPGLGAKLLAMMGSFKIGRSFEIGVTIVLLAVTLDRMSKAWVVKLPEHFERGTPFWIRHKFLLMAIGAFVGFTLIAQVVPILSEVGRKQSWSQGKEIDTLIKGFLAIDAVQAITNSIRYVLNIWVLNPLRDFMLSIPTVAFVLFISAAALLVAGRREAVLAAAFFGLVALTGWWDRSVITLYSVLAAVSIALLLGVPIGVVAARKEKTANAVLLACDTAQTFPSFIYLIPAIMLFGITATSVVMSILIFSMVPLVRYTIEGLRNVPDEMTEAADMAGATRMQKLWNVQLPLALPTMAVGFNQAIMFAFFMVIIAAFIGTQDLGQELQRTLAGTDLGKNFVLGICVTLMALTFDMVIMKWADDKKARLGLN”, the protein production result is reported as “failed”. With “MSELARIVPDSEKISHILIEQGRKITFYSYFSNTFVLGIIAYILVDNTVALDKNSLFFVKTLPFRKKDISLSFMLFKFVIMILLYELVMIISTPAIKLVTTVPIEYVIFFIVQHLFYLVVIGVIEFIHCLFTFFLKRRVKQINSLKVIGDSLLMIFATFYFFDFRYGLELFLANQLWSISYMIPITFFLIVVCLMLISIGLLRLISILENQMSQHSKYIYIPFLNKVIFRYKANWYFISFTTVVMLVIFFQSGLRTMLFILTTVMAFSGVLLLSYGDITADFRKQYDLLRIKIRNEWLSQLLLVIMLAMPLLLLCFWGFGELAQLITALSLSLVAIILGYVFPKSQGSLNETTSLLLLFIVFVLVSLLTNRSFGWLILIVLVLLHLLVIKKVRNEKE”, the protein production entry was “failed”.

For “MTEAIVASVATEPSLRPLAVLLVPLVTVGLIFLSKNRPNIREAWSILAAVTMFGIVASMVPDVLNGRVHETDLGFFVEGIELVLRADGLGMLFALVASGLYVVTAIYSIGYMRGHHEPFQTRFFAMLCASVGAALGVAFASNLFMLLVFYEVLTLATYPLVAHDESEKARVSGYKYLAYALSGGLAVFGGMLAVYWLTDPSTITFTRGGIEGLATVAAADPWAARGAFALLAGGFAVKAAVMPLHSWLPSAMVAPTPVSGLLHAVAVVKAGAFGVARTIIDVFGPETVRQIGMGLPLTIAAGATILIASLFALRQDNLKARLAYSTIAQLSYIVLGLSLLSGMGLMGGLLHIPAHAFSKLTLFLCAGALYVELDVKYISEMAGVGKRMPVTMGAFGLASFSMAGIPLMAGFVSKWHLIWGGAEAGYLLVAPLLVLSGVLNVAYFWPIIYTAFFESEDDADQKPVLDNPFGGVFDDDAYLTDGGVSSDDQHEDDSHDDHHDDGHHARPELPPAGGWDRSNWYGGETTLLLVAPLVTTATLMFIFGVAPDYIVFFDLIEGIVDGALEVDN”, the protein production result is “failed”.

Regarding “MICLEKVEDIPRLQELFAQILIVHHQARSDVLKVKGSKFTDKELEGVIGDANKPVFVYEDEAGTILCHLFLIIKEVSENDGPQKPIKTLFIDDLCVEEKARGQKLGEKLYQFALDYATEQECYNATLHVWNDNQGTLDFYEHLGVKPRYTEMKTVLKLEHHHHHH”, the protein production result is given as “failed”. For “MDSENAVKTTYGEFNGKKPFAVMLLGTDTGALDRTEKRGNTDTIIVVVVNPKKKNYTMISIPRDTMADMVGDDSNDVQKINAAYSIGGAKMAMKTVSNLLNIPVKYYALVNMGGLMKLVDYVGGIYVTPPLTFTYSGFPFKKRVRQHLNGQAALAYSRMRYDDPQGDYGRQKRQREVITKLVQKLATADSLTNFSKIANNLSSNVKTNLSFQALKSILANYSDCTSSSDSDYLHGYSTYVNDAAYQIAPTSELQRISNKIRKLLGLKTATVSNRETELNTLNETAGFKFGSGETQNYTLEHHHHHH”, the protein production result is given as “failed”. For “MSDSGRADALLAELPRDGRGRLKVFLGAAPGVGKTYAMLQAAHSQLRQGVKVLAGVVETHGRAETEALLSGLPQQPLVRSEYRGVLLEEMDLDGLLKAKPKLVLVDELAHSNAPGSRHAKRWQDIQELLAAGIDVFTTVNVQHLESLNDQVRGITGVQVRETLPDWVLQEAYELLLVDLPPRELLERLRDGKVYVPEQARAAIDAFFTQTNLTALRELAMQTAAAQVDNDLAQGYRQLGQAAPAVRGRLLVGIDGDAQAERLVRHASRVAQRRHLPWSLVHVDNGRLRDEQARLRLQAAQQLAERLGGEVVLLRAGEVAKTLIQHAAERRASLLLVGQSRRRWRRRWFGGGLAARLLRNADGLEINVLDSEPQPHQPGLRVKHSLIWFDYVLAVLATLLASALAWGVASVLPLPNISLVFLAAVLLVAVRSSLGPALACAALSFLSYDFLFIPPNFSLAIQREEDVLTLLFFLLMAALTGNLAARQRRQLQALRDTQEETGELLDLSRKLTAATDRQAVISAAAQHLNGRDELRVCLINRDGQGGWKVETGGSPQFSEAERAAADWAWQHDQPAGLGTGTLPFGRWWWWPLSVDDGPLGLLGVCPREGEEFSGQRRRLLTALSQPLAQALARARLAEDLEAARLHGETEQLRSALLASVSHDLRTPLTSMRGSIDSLLALGEAIPLEDRRELLEGTRDEAERLDRYIQNLLDMTRLGHGALKLARDWVAPGDIVGSALNRLRAVLAPLQVATELPADLPLLYVHAALIEQALVNVLENAARFSPLQGHLQLKVSASEQELSFAVSDEGPGIPEDERAKIFDMFYTAARGDRGGQGTGLGLAICQGMVGAHGGHISVAEGIGGKGTCITLHLPLQTQPELESDL” the value was “failed”. The value for “MEPHAESAAAGQAAPPEKRRASWFTRMGRVVRFAGQRADEQKLLQVASSLTFTTVLAIVPMLAVVLSLFTAFPVFQEFRVALEDFLANSLMPPSVSDNIMDYLNQFARQATRLTAIGGAFLIVTSLLLIMTIDKTFNDIWQVTRQRPLPQRALVYWAVITLGPVVAGASLWATSFVARESLGLVRDVPEAVSVAISFIPLVLTGLGFAALFVVVPNRRVYWKDALVGGFGTAIVLELMKAGFAYYLTRFPAYTVIYGAFATLPIFLLWIYLSWLAVLFGATVAASAPLIRLGRWEINRHAGAPFIDALGVLRVLHAAQGSRPAGRSANALAKRLRLHHDELNAVLEALEDMELVARTAEQRWVLTCDPRTTTLEPVFDRFLLDRGQPRLRDEPEIAAVAAGVLGQGPDPTLADLAGVAQNTDIGPAAAVLQLETGKK” was “failed”; that for “MASSYTLMLFLCLSIFLIASTEMMAVEGRICERRSKTWTGFCGNTRGCDSQCKRWERASHGACHAQGFPVSGIPSALPTVTHAKQREKMSAMGAYGITYFVGSIIGLLFVQGFEPEKGTLFKEQKGGVSKIDPKP” was “failed”; that for “MSSVFPKVAVLLAAYNGMAWIEAQLDSILKQANVCVSVFISVDTSSDGTEAWCADYAQHHVNITLLPPAGQFGGASRNFFRLIQDVDFSSFDYVAFSDQDDIWYQDKLERALSTLMSGNHDAYSSNVVAFWPDGQRILLDKAQPQVQWDHLFEAAGPGCTYVMNRPLADAFKSSLIAQWDVAQNVSLHDWYCYAFARSHGFRWFIDPAPGMDYRQHANNQVGANTGLASLITRLKKIADGWWAGQVLLIGRLTGGSETLFAGKITGTRWMFLRLAFMAGRCRRRPRDKIFFIIACLAAMLNTPEQRNNR” was “failed”. For “AIAPSDLAKKKAAKKKEAAKARGRTRKPEDGVNGDAEKPEIQENGAAEVNGVDSLAKELDEFELKKTEARAVTGVLASHPNSTDVHISSLSLTFHGQELLSDTSLELNSGRRYGLIGLNGTGKSMLLSAISHREVPIPEHIDIYHLTREMAPSEKTALQCVMEVDEERIKLEKEAERLAHEDSECEKLMELYERLEELDADKASMRASRILHGLGFTTSMQQKKLKDFSGGWRMRVALARALFLKPFMLLLDEPTNHLDLDACVWLEEELSQFKRILVLISHSQDFLNGVCTNIIHLHQRKLKYYTGNYDQYVKTREELEENQMKRFNWEQDQIAHMKNYIARFGHGSAKLARQAQSKEKTLQKMVASGLTERVVNDKTLSFYFPPCGKIPPPVIMVQNVSFRYSENTPYIYKNLEFGIDLDTRVALVGPNGAGKSTLLKLLTGELLPSDGMIRKHSHVKIGRYHQHLTEQLELDLSPLEYMMKCYPEIKEKEEMKKIIGRYGLTGKQQVSPIRNLSDGQKCRVCFAWLAWQNPHMLFLDEPTNHLDIETIDALAEAINDFEGGMMLVSHDFRLIQQVAQEIWVCEKQTITKWSRDILAYKEHLKSKIDKQMHDL” the value was “failed”; for “MELTELLDIGRQERSQQKPVQIRCCTAAGCLSANSQAVQQQLEQAVKAEGLEGEVQVSGVGCMRLCCQGPLVEVEGSGEEKTKQRLYEKVTPEDASAIIGAL”, “failed”; for “RERLRFERDHFRILVDVTNTVISKLELDVLAAEVSKEIHRFFNIDYISLAICGTHNDKNKLNVFSTRYQSGQAVQHQQTWVDMTGTLAGQVLHSRELLLVNLADIALLAPDDKQLASMLDAGLQAVCLLPLFFGHKMLGVLKLAQCQSDIFTGSNLKLLRQIAARIAIAVDNALAYNEITRLKDS”, “failed”.

As for “MYQAVVFFDLDGTLMQDDKTVAASSVRAIQQLRANHVLPVIATGRNVFEVQDVMTTTGIDSIVSANGSYVAYQGQFLSAHELDKELLTDITHFANRQQNALAYYNNAGFALSHRDALTTSNYRALRQTARVAPHFYEHQHINFLLTFDPLNAAQYRQRYRGRLHFVRNNPRALDTMQWGVSKAVGIQDILTKAHLTKVPTYAFGDQLNDIEMFRMIQTPIAMGNGHPQVKQLARYVTADNMHGGIAQGLQHFDLI”, the protein production result is given as “failed”.

For the sequence “MKFALQINEGPYQHQASDSAYQFAKAALEKGHEIFRVFFYHDGVNNSTRLTTPPQDDRHIVNRWAELAEQYELDMVVCVAAAQRRGIVDEGEASRNGKDATNIHPKFRISGLGQLVEAAIQADRLVVFGD”, the protein production entry is listed as “not failed”. The value for “MFHYTVDVSTGMNETIERLEESLKQEGFGVLWQFSVTEKLQEKGLDFSTPMVILEVCNPQEAARVLNENLLVGYFLPCKLVVYQENGTTKIGMPKPTMLVGMMNDPALKEIAADIEKRLAACLDRCR” was “not failed”; that for “MEILTCIKQVPGTTSVEVDETTGVLKRDGVDSKMNPYDLYALETALRIKEDKKANLKVLSMGPPQAKKVIEESFMMGADEGALISDRRFGGADVLATSYTISQGIKKMGKVDLIICGKQTTDGDTAQVGPEVAEFLDIPHVTNVTKLIEVKDESIVVEIDMPNDLQVCEIEYPCLITVEKDIFQPRLPSFKLKLNTKDREIPVYSLDDFEDKNENNYGLNGSPTQVVRIFPPKPNTDKNIVRGNADELSFALVNKLEELKLV” was “not failed”. The value for “MPNAIFFYRIQRWLYLHHIPFLPKLIQLLIFLIYNTKITADSKIGKGSYFVCKGISTVLIPGTEIGENCVLGLRFSTVRKFPYKNVPKIGNNVFIGPNVVICGPVEIGDNCIVAANSFVDKSLRGG” was “failed”. The value for “MTNTTYVQEYHAIVEVLSKYNEGGKKADSTIMRPAFSSQATIFGVDVDNKLTGGPIQGLFDVIDNVFHPSPEAKAAIARIDIVGTAASARIDTDDISGFRFTDFFNLLKVEGKWTVVSKIYHTHPSA” was “not failed”; that for “MAESTRIGQESRVTLHFALKLEDGNVVDSTFDKQPASFKVGDGNLLPGFEQALFGLKAGDKRTLSILPEQGFGQPNPQNVQIMPRDQFQDMELAEGLLVIFNDAAKTELPGVVKAFDEQQVTVDFNHPLAGKTLAFEVEIIDVQPA” was “failed”. As for “MKSIRRGDGLNVVPFIDIMLVLLAIVLSISTFIAQGKIKVSLPNAKNAEKSQPNDQKVVVISVDEHDNIFVDDKPMNLEALSAVVKQTDPKTLIDLKSDKSSRFETFISIMDILKEHNHENFSISTQAQ”, the protein production entry was “failed”.
